The data set deals with eIF3 complex (purified, 13 subunits a-m) (rabbit (reticulocyte lysate)). The data set is described as follows: EMSA. The note with it: EMSA: 25 mM Tris-HCl pH 7.5, 5 mM Mg(OAc)2, 70 mM KCl, 0.1 mM CaCl2, 0.1 mg/ml BSA, 2 mM TCEP, 30 min at 25 C, 0.7% agarose in TBE, 75 mM KCl, 4 C; for binding signal (% RNA shifted at high eIF3): high eIF3 (4-8 uM lanes quantified).

In PMC8102920 one finds binding signal (% RNA shifted and Kd data, which are given here for four substances.

In the case of H4 1-137 (TWJ), the binding signal (% RNA shifted at high eIF3) worked out at 28.

Take H4 137-241 (4E-SE): the binding signal (% RNA shifted at high eIF3) came out at 14. With H4 241-375 (eIF3-BS), the binding signal (% RNA shifted at high eIF3) is 39. For the substance H4 FL mRNA (1-375), the dissociation constant Kd worked out at 4 µM.
